Changes are numbered by the printed parent chain.
B1: ADI-42898 (monoclonal antibody, IgG) (antibody, V domains shown)
VH: QVQLVESGGGVVQPGRSLRLSCAASGFTFSSYAMHWVRQAPGKGLEWVAVTWFDVSKKDYADSVKGRFTISRDNSKNTLYLQMNSLRAEDTAVYYCARNLIRYSGSYFPVHGMDVWGQGTTVTVSS
VL: DIVMTQSPLSLPVTPGEPASISCRSSQSLLHTYGYNCLDWYLQRPGQSPQLLISLGSYRASGVPDRFSGSGSGTDFTLKISRVEAEDVGVYYCMQALHPFTFGGGTKVEIK
B2: ADI-65534 (antibody, V domains shown)
VH: B1 VH with T28E, G105V
VL: B1 VL with C37V
B3: ADI-65533 (antibody, V domains shown)
VH: B1 VH with G105V
VL: B1 VL with C37V

Molecular target: ANDV Gn^H/Gc (Andes virus; strain , Q9E006 …, UniProt Q9E006)
Test: BLI

| Binder | half-life (t1/2) of the complex at pH 5.5 | fold reduction of dissociation at acidic pH against ADI-42898 |
| --- | --- | --- |
| B1 | 519 s | – |
| B2 | – | 10 fold |
| B3 | – | 10 fold |

Source: PMC11721787 (Science translational medicine, 2023)
